Source: patent publication US6828136B2, “Esterase enzymes, DNA encoding esterase enzymes and vectors and host cells incorporating same” (Genencor International, Inc., priority 1996, dated 2004)
Where two headings read alike, the source gives them in different places.

Experiments:
38 kD esterase = 38 kD esterase (Aspergillus awamori, UniProt Q9P979); test: API-20 enzyme test strip, substrate specificity for 38 kD esterase (Table 2); format: biochemical, Aspergillus niger; conditions: API-20 strip
Protocol: Purified 38 kD esterase was analyzed for a variety of biochemical activities with an API-20 enzyme test strip (BioMerieux Vitek) according to the manufacturers instructions. […] “+++” indicates very strong response, “++” indicates strong response and “+” indicates activity shown towards substrate. “−” means no activity detected.

[1] = substrate: COc1cc(/C=C/C(=O)OC[C@@H]2O[C@@H](O[C@H]3[C@H](O)COC(O)[C@@H]3O)[C@H](O)[C@H]2O)ccc1O; test: purified protein, by the assay type; conditions: other: substrate of purified 38 kD esterase
[2] = substrate: COc1cc(/C=C/C(=O)OC[C@@H]2O[C@@H](O[C@@H]3[C@@H](O)[C@H](O[C@@H]4COC(O)[C@H](O)[C@H]4O)OC[C@H]3O[C@@H]3OC[C@@H](O)[C@H](O)[C@H]3O)[C@H](O)[C@H]2O)ccc1O; test: purified protein, by the assay type; conditions: other: substrate of purified 38 kD esterase
[3] = substrate: COc1cc(/C=C/C(=O)OC[C@@H]2O[C@@H](O[C@@H]3[C@@H](O)[C@H](O[C@@H]4COC(O)[C@H](O)[C@H]4O)OC[C@H]3O)[C@H](O)[C@H]2O)ccc1O; test: purified protein, by the assay type; conditions: other: substrate of purified 38 kD esterase
[4] = substrate: COC(=O)/C=C/c1ccc(O)c(OC)c1; test: purified protein, by the assay type; conditions: other: substrate of purified 38 kD esterase
[5] = pH and temperature optimum of 38 kD esterase activity on methyl ferulate; format: biochemical; conditions: for maximal activity: methyl ferulate
Protocol: The enzyme sample was chromatographed by hydrophobic interaction chromatography (Poros® HPEM phenyl ether, Perseptive BioSystems, perfusion chromatography, […]). The column was connected to a BioCad® Perfusion Chromatography Workstation (Perseptive BioSystems) and equilibrated with 5 column volumes Tris-HCl (50 mM, pH 7.4) plus 1.2 M ammonium sulfate. The sample (205 ml) was applied to the column and separated at a flow rate of 30 ml/min with a linear gradient from 1.2 M to 200 mM ammonium sulfate over 20 column volumes. […] Four fractions eluting at 750 mM ammonium sulfate contained 83% of the starting FAE activity. Active fractions were pooled (60 ml), dialysed by ultrafiltration into start buffer for next chromatographic step (10 kDa membrane, 20L of 25 mM sodium acetate buffer pH 5.0). The sample was concentrated to 10 ml in preparation for ion exchange chromatography.
(§1) The 38 kD esterase isolated according to Example 1 was analyzed for biochemical properties. […] When the 38 kD esterase was incubated in buffer for 30 minutes without substrate at pH 5.1, the temperature optima was 55° C.

[6] = Isoelectric point by isoelectric focusing (IEF) gel; format: physicochemical
Protocol: Upon native PAGE of a desalted active fraction from HPSEC a single protein band was observed, The isolelectric point of the FAE was determined using Phast gel Dry IEF equilibrated with a solution ampholyte, (20% final concentration, containing a mix of pI 2-4, 80%, pI 3-10 20%) Glycerol (10%) for 1 hour. Separation was performed as per manufacturers recommendation (Pharmacia Biotechnology, Dry IEF instruction bulletin) and stained with coomassie R-250. The sample migrated as a single protein band with an isolelectric point of about 2.8.

[7] = Activity of purified 38 kD esterase toward natural and synthetic substrates (in words); format: biochemical; conditions: purified enzyme
Protocol: as §1

[8] = from A. niger CBS120.49; cited from earlier work
[9] = from A. niger CBS120.49 grown on oat spelt xylan; cited from earlier work

## OC[C@H]1O[C@@H](Oc2ccc3cc(Br)ccc3c2)[C@H](O)[C@@H](O)[C@@H]1O [6-Br-2-naphthyl-βD-glucopyranoside]
38 kD esterase; pH 5.4
  Activity: (+++)

## CCCCCCCC(=O)Oc1ccc2ccccc2c1 [2-naphthyl caprylate]
38 kD esterase; pH 7.5
  Activity: (++)

## O=P(O)(O)Oc1ccc2ccccc2c1 [2-naphthyl phosphate]
38 kD esterase; pH 5.4
  Activity: (+)

## CCCCCCCCCCCCCC(=O)Oc1ccc2ccccc2c1 [2-naphthyl myristate]
38 kD esterase; pH 7.5
  Activity: (+)

## OC[C@H]1O[C@@H](Oc2ccc3ccccc3c2)[C@H](O)[C@@H](O)[C@H]1O [2-naphthyl-βD-galactopyranoside]
38 kD esterase; pH 5.4
  Activity: (++)

## COc1ccccc1NC(=O)c1cc2cc(Br)ccc2cc1OP(=O)(O)O [Naphthol-AS-BI-phosphate]
38 kD esterase; pH 5.4
  Activity: (++)

## OC[C@H]1O[C@H](Oc2ccc3cc(Br)ccc3c2)[C@H](O)[C@@H](O)[C@H]1O [6-Br-2-naphthyl-αD-galactopyranoside]
38 kD esterase; pH 5.4
  Activity: (+++)

## OC[C@H]1O[C@H](Oc2ccc3ccccc3c2)[C@H](O)[C@@H](O)[C@@H]1O [2-naphthyl-αD-glucopyranoside]
38 kD esterase; pH 5.4
  Activity: (+)

## CCCC(=O)Oc1ccc2ccccc2c1 [2-naphthyl butyrate]
38 kD esterase; pH 6.5
  Activity: (+++)

B1: 38 kD esterase (Aspergillus awamori) (protein)
chain: ASTQGISEDLYSRLVEMATISQAAYADLCNIPSTIIKGEKIYNSQTDINGWILRDDSSKEIITVFRGTGSDTNLQLDTNYTLTPFDTLPQCNGCEVHGGYYIGWVSVQDQVESLVKQQVSQYPDYALTVTGHSLGASLAALTAAQLSATYDNIRLYTFGEPRSGNQAFASYMNDAFQASSPDTTQYFRVTHANDGIPNLPPVEQGYAHGGVEYWSVDPYSAQNTFVCTGDEVQCCEAQGGQGVNNAHTTYFGMTSGACTW
[1]
  Km: 0.078 mM
  Vmax: 276 µmol/min/mg
[2]
  Km: 0.052 mM
  Vmax: 307 µmol/min/mg
[3]
  Km: 0.019 mM
  Vmax: 498 µmol/min/mg
[4]
  Km: 2.08 mM
  Vmax: 87 µmol/min/mg

B2: 38 kD esterase: esterase derived from Aspergillus niger, about 38 kD on SDS-PAGE, amino acid sequence SEQ. ID NO:28 (protein)
chain: MKQFSAKHVLAVVVTAGHALAASTQGISEDLYSRLVEMATISQAAYADLCNIPSTIIKGEKIYNSQTDINGWILRDDSSKEIITVFRGTGSDTNLQLDTNYTLTPFDTLPQCNGCEVHGGYYIGWVSVQDQVESLVKQQVSQYPDYALTVTGHSLGASLAALTAAQLSATYDNIRLYTFGEPRSGNQAFASYMNDAFQASSPDTTQYFRVTHANDGIPNLPPVEQGYAHGGVEYWSVDPYSAQNTFVCTGDEVQCCEAQGGQGVNNAHTTYFGMTSGACTW
[5]; 250 μM methyl ferulate present
  temperature optimum: 65 °C
[5]; pH 3
  maximal activity: 83%
[5]; pH 8
  maximal activity: 25%
[6]
  pI (isoelectric point): about 2.8
[7]
  activity toward natural feruloyl and p-coumaroyl esters, cell walls of wheat bran and sugar beet pulp, wheat flour, pentosan fraction, ethyl and methyl esters of ferulic and p-coumaric acid: active

B3: FAE-III: ferulic acid esterase isolated from Aspergillus niger CBS 120.49 (Faulds et al.) (protein, UniProt O42807 22-281, looked up)
Feruloyl esterase A: ASTQGISEDLYNRLVEMATISQAAYADLCNIPSTIIKGEKIYNAQTDINGWILRDDTSKEIITVFRGTGSDTNLQLDTNYTLTPFDTLPQCNDCEVHGGYYIGWISVQDQVESLVKQQASQYPDYALTVTGHSLGASMAALTAAQLSATYDNVRLYTFGEPRSGNQAFASYMNDAFQVSSPETTQYFRVTHSNDGIPNLPPADEGYAHGGVEYWSVDPYSAQNTFVCTGDEVQCCEAQGGQGVNDAHTTYFGMTSGACTW
[8]
  pH optimum: 5
  temperature optimum: 55-60 °C
[9]
  pI: 3.3
